± gives the standard deviation of the averaged measurements.
test system: ATP; experiment: switch fluorescence ratio, 500 uM ATP over buffer (Cy3 cluster intensity, sum of 5 cycles each) (fold (ratio)); higher = stronger signal-on switching upon ATP binding; sequences stand for … in TCGTCGGCAGCGTCAGATGTGTATAAGAGACAGTTTTTTTTTTTTTTTTTTTTTTTTT…TC; conditions: aptamer strand: ATP DNA aptamer (quencher-CACCTGGGGGAGTATTGCGGAGGAAGG + anchor), 100 nM annealed; ATP concentration: 500 uM
Method in brief: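 Switching-strand clusters labelled with Cy3 on a modified Illumina MiSeq flow-cell were annealed to 100 nM quencher-labelled ATP aptamer, imaged in selection buffer, and re-imaged after 15 min with 500 uM ATP at 22 °C. This was done over five cycles with NaOH stripping and re-annealing in between. The fluorescence ratio is summed target-cycle over summed buffer-cycle Cy3 intensity per cluster, averaged per switch-domain sequence, excluding clusters outside 100-1000 RFU.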
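Note: ATP exposure 15 min at 22 °C before imaging.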

Row | Sequence | switch fluorescence ratio
1 | TAATTTGCAG | 0.9812 ± 0.0076
2 | TAATTTGTCG | 0.982 ± 0.023
3 | TAATTTGTGT | 1.01 ± 0.014
4 | TAATTTTGGT | 0.9847 ± 0.0068
5 | TAATTTTGTT | 1.02 ± 0.019
6 | TAATTTTTTT | 1.01 ± 0.014
7 | TACAACTTTC | 1.08 ± 0.051
8 | TACAAGCTTT | 0.992 ± 0.024
9 | TACAAGGTCA | 1.01 ± 0.0045
10 | TACAATTTCG | 1.01 ± 0.032
11 | TACACGGGGT | 1.05 ± 0.018
12 | TACACGTTTT | 1.03 ± 0.021
13 | TACAGACCCG | 1.07 ± 0.062
14 | TACAGACGAT | 1.3 ± 0.068
15 | TACAGCAGTA | 1.1 ± 0.14
16 | TACAGCGGAG | 0.999 ± 0.066
17 | TACAGGCGTA | 0.9955 ± 0.0069
18 | TACAGGGGGG | 1 ± 0.027
19 | TACAGGGGTA | 1.05 ± 0.012
20 | TACAGGTGTG | 1.24 ± 0.044
21 | TACAGGTTGG | 1.03 ± 0.037
22 | TACAGGTTTT | 0.972 ± 0.073
23 | TACAGTAGGA | 1.06 ± 0.064
24 | TACAGTCAAC | 1.06 ± 0.041
25 | TACATAGGCA | 1.03 ± 0.035

Row | Sequence | switch fluorescence ratio
26 | TACATCATCG | 1.14 ± 0.016
27 | TACATCATGG | 1.04 ± 0.019
28 | TACATGAAGA | 1.02 ± 0.013
29 | TACATGAAGG | 0.995 ± 0.019
30 | TACATGGGTA | 0.9583 ± 0.0072
31 | TACATGGTTT | 1.01 ± 0.032
32 | TACATGTCCG | 1.05 ± 0.064
33 | TACATGTCGG | 1.01 ± 0.0022
34 | TACATTAGGC | 1.05 ± 0.018
35 | TACATTCGCG | 1.01 ± 0.035
36 | TACATTGGCT | 0.982 ± 0.019
37 | TACATTTGGG | 0.992 ± 0.021
38 | TACCAAAGAA | 1.04 ± 0.026
39 | TACCAATAAG | 1.03 ± 0.044
40 | TACCACGGGT | 1.03 ± 0.018
41 | TACCAGGGTA | 1.05 ± 0.047
42 | TACCATGACC | 1.109 ± 0.0081
43 | TACCATGGTT | 0.9841 ± 0.0061
44 | TACCATTAGT | 1.041 ± 0.0085
45 | TACCCCGGTA | 1.04 ± 0.035
46 | TACCCGCGCG | 1.026 ± 0.003
47 | TACCCGGGTT | 1.11 ± 0.2
48 | TACCGCGGTT | 1.04 ± 0.03
49 | TACCGCGTGG | 1.03 ± 0.017
50 | TACCGCTTGC | 2.01 ± 0.53

Row | Sequence | switch fluorescence ratio
51 | TACCGGTGTC | 1.06 ± 0.047
52 | TACCTATTGG | 0.9974 ± 0.0039
53 | TACCTTGGGC | 1.04 ± 0.046
54 | TACCTTTGGG | 1.02 ± 0.032
55 | TACGAAGGGG | 1.02 ± 0.018
56 | TACGAAGTAG | 0.993 ± 0.042
57 | TACGAATCTG | 1.03 ± 0.019
58 | TACGACACCT | 1.73 ± 0.027
59 | TACGATGCTT | 1.2 ± 0.028
60 | TACGCGGGGT | 1.29 ± 0.45
61 | TACGCTTTTT | 1.02 ± 0.055
62 | TACGGGAACG | 1.06 ± 0.018
63 | TACGGGAGTC | 1.06 ± 0.16
64 | TACGGGCACG | 1.04 ± 0.028
65 | TACGGGCATA | 1.1 ± 0.049
66 | TACGGGCGCG | 0.981 ± 0.017
67 | TACGGGGCCT | 1.04 ± 0.064
68 | TACGGGGG | 1.01 ± 0.071
69 | TACGGGGGCG | 1.01 ± 0.1
70 | TACGGGGGGT | 1.02 ± 0.026
71 | TACGGTAAAA | 0.986 ± 0.044
72 | TACGGTGGGA | 1.0079 ± 0.00053
73 | TACGGTGTGG | 0.989 ± 0.04
74 | TACGGTTACT | 1.27 ± 0.014
75 | TACGGTTGCA | 1.01 ± 0.017

Row | Sequence | switch fluorescence ratio
76 | TACGGTTGGC | 0.989 ± 0.023
77 | TACGTCATTA | 1.2 ± 0.012
78 | TACGTCCCCG | 1.03 ± 0.04
79 | TACGTCCCGA | 1.01 ± 0.045
80 | TACGTGCATT | 1.0476 ± 0.00035
81 | TACGTGCCTC | 0.99 ± 0.02
82 | TACGTGGGGG | 1.02 ± 0.029
83 | TACGTGGTGG | 1.05 ± 0.024
84 | TACGTGTGGG | 1.02 ± 0.038
85 | TACGTTGCAA | 1.22 ± 0.015
86 | TACGTTTGCG | 1.01 ± 0.014
87 | TACGTTTGGG | 0.981 ± 0.031
88 | TACGTTTTTC | 1.003 ± 0.0048
89 | TACTAACATT | 1.14 ± 0.019
90 | TACTAAGGGG | 1.04 ± 0.041
91 | TACTAAGTTG | 1.07 ± 0.055
92 | TACTAATGGA | 1.01 ± 0.041
93 | TACTACAGGG | 1.11 ± 0.013
94 | TACTAGTTGT | 0.99 ± 0.022
95 | TACTCATTGT | 1.03 ± 0.021
96 | TACTCGCCAT | 1.13 ± 0.035
97 | TACTCGCTGG | 1.07 ± 0.036
98 | TACTCGGGCT | 1.017 ± 0.0044
99 | TACTCTAAAA | 1.08 ± 0.022
100 | TACTGACGAA | 1.27 ± 0.11

Row | Sequence | switch fluorescence ratio
101 | TACTGATAGG | 1.0161 ± 0.00099
102 | TACTGGGTTC | 0.987 ± 0.047
103 | TACTGGTATG | 1.03 ± 0.037
104 | TACTGGTCCT | 1.03 ± 0.038
105 | TACTGGTGGT | 0.992 ± 0.016
106 | TACTGTGACA | 1.14 ± 0.012
107 | TACTGTGGTC | 1.025 ± 0.0053
108 | TACTGTTATG | 1.1 ± 0.099
109 | TACTTAAGTG | 1.02 ± 0.047
110 | TACTTAATAG | 1.03 ± 0.0015
111 | TACTTAGA | 1.04 ± 0.015
112 | TACTTAGCGA | 1.18 ± 0.044
113 | TACTTAGGAT | 1.02 ± 0.044
114 | TACTTAGGTG | 1.17 ± 0.12
115 | TACTTATATG | 1.03 ± 0.016
116 | TACTTATTGT | 0.9755 ± 0.0083
117 | TACTTGTGTG | 0.988 ± 0.011
118 | TACTTGTTTC | 1.01 ± 0.027
119 | TACTTTAATT | 1.04 ± 0.014
120 | TACTTTAGGG | 1.04 ± 0.024
121 | TACTTTGCGG | 1.01 ± 0.063
122 | TACTTTGGGC | 1.03 ± 0.065
123 | TACTTTTATA | 1.03 ± 0.017
124 | TAGAAAAGCA | 0.997 ± 0.024
125 | TAGAAAAGGG | 1.03 ± 0.031

Row | Sequence | switch fluorescence ratio
126 | TAGAAAAGGT | 0.974 ± 0.028
127 | TAGAAAATAA | 0.995 ± 0.021
128 | TAGAAACCTT | 1.81 ± 1.1
129 | TAGAAAGGGC | 1.01 ± 0.08
130 | TAGAAATTAT | 1.19 ± 0.38
131 | TAGAACGGGG | 0.9978 ± 0.0022
132 | TAGAAGGGCA | 0.988 ± 0.015
133 | TAGAAGGGGG | 0.965 ± 0.016
134 | TAGAAGTTTG | 0.976 ± 0.026
135 | TAGAATATAT | 1.78 ± 1
136 | TAGAATTAGG | 0.987 ± 0.037
137 | TAGAATTTGG | 1.01 ± 0.06
138 | TAGACACAGC | 1.02 ± 0.12
139 | TAGACCATGT | 1.02 ± 0.034
140 | TAGACGTCGT | 0.965 ± 0.024
141 | TAGACTTATG | 1.04 ± 0.02
142 | TAGAGAAATA | 1.01 ± 0.064
143 | TAGAGAATGG | 0.994 ± 0.0086
144 | TAGAGACTGA | 1.023 ± 0.0022
145 | TAGAGCACGG | 1.02 ± 0.012
146 | TAGAGCAGCT | 1.03 ± 0.021
147 | TAGAGGAAGG | 0.979 ± 0.021
148 | TAGAGGAGGC | 0.996 ± 0.017
149 | TAGAGGGCTG | 1.01 ± 0.016
150 | TAGAGGGGAT | 0.985 ± 0.027

Row | Sequence | switch fluorescence ratio
151 | TAGAGGGGGA | 0.987 ± 0.018
152 | TAGAGGGTTG | 0.969 ± 0.02
153 | TAGAGGGTTT | 1.02 ± 0.045
154 | TAGAGGTTGG | 0.981 ± 0.042
155 | TAGAGTAACA | 1 ± 0.035
156 | TAGAGTCTTT | 0.994 ± 0.013
157 | TAGAGTTATT | 1.01 ± 0.014
158 | TAGAGTTGTT | 0.984 ± 0.03
159 | TAGATAGAGT | 0.994 ± 0.024
160 | TAGATATTTT | 0.986 ± 0.032
161 | TAGATCAAG | 1.04 ± 0.028
162 | TAGATTCGCT | 0.993 ± 0.039
163 | TAGATTCGTT | 0.9907 ± 0.0071
164 | TAGATTGAAA | 0.986 ± 0.028
165 | TAGATTGGGT | 0.976 ± 0.033
166 | TAGCAAGTGG | 0.998 ± 0.043
167 | TAGCAATGAA | 1.53 ± 0.057
168 | TAGCACGGAT | 1.02 ± 0.038
169 | TAGCAGATCA | 0.994 ± 0.024
170 | TAGCAGGGGG | 1.03 ± 0.011
171 | TAGCAGGTTA | 1 ± 0.016
172 | TAGCATGTGG | 1.0006 ± 0.0008
173 | TAGCCTTTGG | 0.978 ± 0.034
174 | TAGCCTTTTT | 0.955 ± 0.015
175 | TAGCGAGGGG | 0.98529 ± 0.00026

Row | Sequence | switch fluorescence ratio
176 | TAGCGATTGT | 1.02 ± 0.062
177 | TAGCGCCCCG | 0.987 ± 0.016
178 | TAGCGGGCGT | 0.964 ± 0.026
179 | TAGCGGGGGG | 1.02 ± 0.046
180 | TAGCGGGTTG | 1.03 ± 0.036
181 | TAGCGTCTGT | 0.983 ± 0.02
182 | TAGCGTTTGG | 1.01 ± 0.045
183 | TAGCTAGTCG | 1.01 ± 0.039
184 | TAGCTCCGTA | 1.09 ± 0.036
185 | TAGCTGTTCG | 0.9887 ± 0.004
186 | TAGCTTCTGC | 0.907 ± 0.063
187 | TAGCTTTTAT | 0.996 ± 0.032
188 | TAGGAAAAAA | 1.03 ± 0.033
189 | TAGGAAAGAA | 1.03 ± 0.028
190 | TAGGAAATTA | 1 ± 0.015
191 | TAGGAAGGTT | 0.9879 ± 0.0036
192 | TAGGAATACG | 1.24 ± 0.036
193 | TAGGACGGGT | 0.9932 ± 0.0054
194 | TAGGAGCGTG | 1.02 ± 0.044
195 | TAGGAGGGGA | 1.01 ± 0.029
196 | TAGGAGTAAG | 1.01 ± 0.03
197 | TAGGATAGAC | 1 ± 0.017
198 | TAGGATAGGG | 0.9972 ± 0.0021
199 | TAGGATATTT | 1 ± 0.02
200 | TAGGATGTA | 0.9643 ± 0.0014

From the supplement of paper PMC10126150
